# *1 amine or outer side, *2 acyl side, *3 side chain or, on linkers, in order; H or OH if unused. Where no end group is shown, it is not given here. Side-chain parts run from the residue outwards. The star is where a group is joined. C18 diacid = O=C(O)CCCCCCCCCCCCCCCCC(=O)*; γGlu = O=C(O)[C@H](CCC(=O)[*:2])N[*:1]; Palmitoyl = CCCCCCCCCCCCCCCC(=O)*; AEEA = NCCOCCOCC(=O)O
# T1: hGIPR (Homo sapiens, UniProt P48546)
# T1 sequence (P48546 22-466): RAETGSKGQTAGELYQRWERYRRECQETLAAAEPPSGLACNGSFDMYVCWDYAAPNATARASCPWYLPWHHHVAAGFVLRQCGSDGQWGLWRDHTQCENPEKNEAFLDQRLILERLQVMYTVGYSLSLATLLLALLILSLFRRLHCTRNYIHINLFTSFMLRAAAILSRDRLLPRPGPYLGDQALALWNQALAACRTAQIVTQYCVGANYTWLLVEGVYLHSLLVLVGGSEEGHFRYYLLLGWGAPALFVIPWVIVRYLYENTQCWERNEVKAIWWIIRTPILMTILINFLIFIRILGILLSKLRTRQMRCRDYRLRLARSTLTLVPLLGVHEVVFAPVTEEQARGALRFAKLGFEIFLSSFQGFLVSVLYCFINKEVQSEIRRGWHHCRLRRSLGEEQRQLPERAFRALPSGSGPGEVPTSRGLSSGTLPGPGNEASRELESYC
# T2: mGIPR (Mus musculus, UniProt Q0P543)
# T2 sequence (Q0P543 19-460): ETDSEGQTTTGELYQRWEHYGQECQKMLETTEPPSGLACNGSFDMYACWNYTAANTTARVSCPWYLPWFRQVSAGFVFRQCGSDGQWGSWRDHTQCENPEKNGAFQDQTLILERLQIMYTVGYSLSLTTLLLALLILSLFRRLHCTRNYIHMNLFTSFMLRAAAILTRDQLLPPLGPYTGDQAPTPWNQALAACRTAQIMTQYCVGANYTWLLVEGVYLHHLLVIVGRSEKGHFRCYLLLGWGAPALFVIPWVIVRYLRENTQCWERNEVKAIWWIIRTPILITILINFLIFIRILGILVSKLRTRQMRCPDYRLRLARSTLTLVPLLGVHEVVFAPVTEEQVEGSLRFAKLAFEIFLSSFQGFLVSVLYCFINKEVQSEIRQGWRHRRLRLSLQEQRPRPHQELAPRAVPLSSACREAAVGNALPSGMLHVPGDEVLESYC
# T3: human GIP receptor (human) (UniProt P48546)
# T3 sequence: T1 sequence (P48546 22-466)
# T4: mouse GIP receptor (mouse) (UniProt Q0P543)
# T4 sequence: T2 sequence (Q0P543 19-460)
# T5: human GIP receptor (human, UniProt P48546 22-466)
# T5 sequence: T1 sequence (P48546 22-466)
# T6: mouse GIP receptor (mouse, UniProt Q0P543 19-460)
# T6 sequence: T2 sequence (Q0P543 19-460)
# B1: [Nα-Ac, L14, R18, E21] hGIP(5-31)-K11(OEG2-C18-OH) (peptide)
# peptide: Ac-TFISDYK([AEEA-AEEA-C18 diacid])IALDKIRQQEFVNWLLAQKG
# B2: hGIP(3-30) amide (peptide)
# peptide: EGTFISDYSIAMDKIHQQDFVNWLLAQK-NH2
# B3: [Nα-Ac, L14, R18, E21] hGIP(5-31)-K11 (γE-C16) (peptide)
# peptide: Ac-TFISDYK([γGlu-Palmitoyl])IALDKIRQQEFVNWLLAQKG
# B4: [Nα-Ac, L14, R18, E21] hGIP(5-31)-K10 (γE-C16) (peptide)
# peptide: Ac-TFISDK([γGlu-Palmitoyl])SIALDKIRQQEFVNWLLAQKG
# B5: [L14, R18, E21] hGIP(5-31) (peptide)
# peptide: TFISDYSIALDKIRQQEFVNWLLAQKG
# B6: [Nα-Ac, L14, R18, E21] hGIP(5-31)-K11(OEG2-γE-C18-OH) (peptide)
# peptide: Ac-TFISDYK([AEEA-AEEA-γGlu-C18 diacid])IALDKIRQQEFVNWLLAQKG
# B7: [L14, R18, E21] hGIP(3-30)-K11 (γE-C16) (peptide)
# peptide: EGTFISDYK([γGlu-Palmitoyl])IALDKIRQQEFVNWLLAQK-NH2
# modifications: N-terminus assumed
# SMILES: CCCCCCCCCCCCCCCC(=O)N[C@@H](CCC(=O)NCCCC[C@H](NC(=O)[C@H](Cc1ccc(O)cc1)NC(=O)[C@H](CC(=O)O)NC(=O)[C@H](CO)NC(=O)[C@@H](NC(=O)[C@H](Cc1ccccc1)NC(=O)[C@@H](NC(=O)CNC(=O)[C@@H](N)CCC(=O)O)[C@@H](C)O)[C@@H](C)CC)C(=O)N[C@H](C(=O)N[C@@H](C)C(=O)N[C@@H](CC(C)C)C(=O)N[C@@H](CC(=O)O)C(=O)N[C@@H](CCCCN)C(=O)N[C@H](C(=O)N[C@@H](CCCNC(=N)N)C(=O)N[C@@H](CCC(N)=O)C(=O)N[C@@H](CCC(N)=O)C(=O)N[C@@H](CCC(=O)O)C(=O)N[C@@H](Cc1ccccc1)C(=O)N[C@H](C(=O)N[C@@H](CC(N)=O)C(=O)N[C@@H](Cc1c[nH]c2ccccc12)C(=O)N[C@@H](CC(C)C)C(=O)N[C@@H](CC(C)C)C(=O)N[C@@H](C)C(=O)N[C@@H](CCC(N)=O)C(=O)N[C@@H](CCCCN)C(N)=O)C(C)C)[C@@H](C)CC)[C@@H](C)CC)C(=O)O
# B8: [L14, R18, E21] hGIP(6-31) (peptide)
# peptide: FISDYSIALDKIRQQEFVNWLLAQKG
# B9: [Nα-Ac, L14, R18, E21] hGIP(5-31)-K11 (-C18-OH) (peptide)
# peptide: Ac-TFISDYK(C18 diacid)IALDKIRQQEFVNWLLAQKG
# B10: [L14, R18, E21] hGIP(3-30) amide (peptide)
# peptide: EGTFISDYSIALDKIRQQEFVNWLLAQK-NH2
# Key:
# hGIPR = target: T1, hGIPR; test: cAMP CRE-luciferase assay in BHK cells expressing GIPR; type: cell-based; conditions: agonist mode; for Agonism at the hGIPR (cAMP production by peptide alone): without native ligand
# mGIPR = target: T2, mGIPR; test: as above; type: cell-based; conditions: agonist mode, without native ligand
# [1] = target: T3, human GIP receptor (human)
# [2] = target: T4, mouse GIP receptor (mouse)
# human GIP receptor [3] = target: T5, human GIP receptor; test: cell-based or functional assay
# mouse GIP receptor [4] = target: T6, mouse GIP receptor; test: cell-based or functional assay
# human GIP receptor [5] = target: T5, human GIP receptor; test: radioligand binding
# mouse GIP receptor [6] = target: T6, mouse GIP receptor; test: radioligand binding
Molecule,maximal % inhibition of GIP-induced cAMP in BHK cells expressing hGIPR (human GIP receptor [3]),maximal % inhibition of GIP-induced cAMP in BHK cells expressing mGIPR (mouse GIP receptor [4]),IC50 (human GIP receptor [5]),IC50 (mouse GIP receptor [6]),also measured
"CCCCCCCCCCCCCCCC(=O)N[C@@H](CCC(=O)NCCCC[C@H](NC(=O)[C@H](Cc1ccc(O)cc1)NC(=O)[C@H](CC(=O)O)NC(=O)[C@H](CO)NC(=O)[C@@H](NC(=O)[C@H](Cc1ccccc1)NC(=O)[C@@H](NC(=O)CNC(=O)[C@@H](N)CCC(=O)O)[C@@H](C)O)[C@@H](C)CC)C(=O)N[C@H](C(=O)N[C@@H](C)C(=O)N[C@@H](CC(C)C)C(=O)N[C@@H](CC(=O)O)C(=O)N[C@@H](CCCCN)C(=O)N[C@H](C(=O)N[C@@H](CCCNC(=N)N)C(=O)N[C@@H](CCC(N)=O)C(=O)N[C@@H](CCC(N)=O)C(=O)N[C@@H](CCC(=O)O)C(=O)N[C@@H](Cc1ccccc1)C(=O)N[C@H](C(=O)N[C@@H](CC(N)=O)C(=O)N[C@@H](Cc1c[nH]c2ccccc12)C(=O)N[C@@H](CC(C)C)C(=O)N[C@@H](CC(C)C)C(=O)N[C@@H](C)C(=O)N[C@@H](CCC(N)=O)C(=O)N[C@@H](CCCCN)C(N)=O)C(C)C)[C@@H](C)CC)[C@@H](C)CC)C(=O)O [Peptide 6, [L14, R18, E21] hGIP(3–30)-K11 (γE-C16)]",,,,,Agonism at the hGIPR (cAMP production by peptide alone) (hGIPR): negligible cAMP production as agonists; Agonism at the mGIPR (cAMP production by peptide alone) (mGIPR): negligible cAMP production as agonists
"CC[C@H](C)[C@H](NC(=O)[C@H](CO)NC(=O)[C@H](Cc1ccc(O)cc1)NC(=O)[C@H](CC(=O)O)NC(=O)[C@H](CO)NC(=O)[C@@H](NC(=O)[C@H](Cc1ccccc1)NC(=O)[C@@H](NC(=O)CNC(=O)[C@H](CCC(=O)O)NC(=O)[C@H](C)NC(=O)[C@@H](N)Cc1ccc(O)cc1)[C@@H](C)O)[C@@H](C)CC)C(=O)N[C@@H](C)C(=O)N[C@@H](CCSC)C(=O)N[C@@H](CC(=O)O)C(=O)N[C@@H](CCCCN)C(=O)N[C@H](C(=O)N[C@@H](CCCNC(=N)N)C(=O)N[C@@H](CCC(N)=O)C(=O)N[C@@H](CCC(N)=O)C(=O)N[C@@H](CC(=O)O)C(=O)N[C@@H](Cc1ccccc1)C(=O)N[C@H](C(=O)N[C@@H](CC(N)=O)C(=O)N[C@@H](Cc1c[nH]c2ccccc12)C(=O)N[C@@H](CC(C)C)C(=O)N[C@@H](CC(C)C)C(=O)N[C@@H](C)C(=O)N[C@@H](CCC(N)=O)C(=O)N[C@@H](CCCNC(=N)N)C(=O)NCC(=O)N[C@@H](CCCCN)C(=O)N[C@@H](CCCCN)C(=O)N[C@@H](CO)C(=O)N[C@@H](CC(=O)O)C(=O)N[C@@H](Cc1c[nH]c2ccccc12)C(=O)N[C@@H](CCCCN)C(=O)N[C@@H](Cc1c[nH]cn1)C(=O)N[C@@H](CC(N)=O)C(=O)N[C@H](C(=O)N[C@H](C(=O)N[C@@H](CCC(N)=O)C(=O)O)[C@@H](C)O)[C@@H](C)CC)C(C)C)[C@@H](C)CC [mGIP, reference compound]",,,,,"EC50 (hGIPR; cAMP EC50, hGIPR, native ligand, Table 1): 0.01 nM"
"EGTFISDYSIALDKIRQQEFVNWLLAQK-NH2 [Peptide 2, [L14, R18, E21] hGIP(3–30)]",,,,,Agonism at the hGIPR (cAMP production by peptide alone) (hGIPR): partial agonism; Agonism at the mGIPR (cAMP production by peptide alone) (mGIPR): no significant agonism
"FISDYSIALDKIRQQEFVNWLLAQKG [Peptide 4, [L14, R18, E21] hGIP(6–31)]",,,,,Agonism at the hGIPR (cAMP production by peptide alone) (hGIPR): partial agonism; Agonism at the mGIPR (cAMP production by peptide alone) (mGIPR): no significant agonism
"TFISDYSIALDKIRQQEFVNWLLAQKG [Peptide 3, [L14, R18, E21] hGIP(5–31)]",,,,,Agonism at the hGIPR (cAMP production by peptide alone) (hGIPR): partial agonism; Agonism at the mGIPR (cAMP production by peptide alone) (mGIPR): no significant agonism
"[Pla6, L14, R18, E21] hGIP(6-31) (peptide)",,,,,maximal % inhibition of GIP-induced cAMP in BHK cells expressing hGIPR [1]: 98%; maximal % inhibition of GIP-induced cAMP in BHK cells expressing mGIPR [2]: 99%
"[Pla6, L14, R18, E21] hGIP(6-31)-K11 (γE-C16) (peptide)",,,,,maximal % inhibition of GIP-induced cAMP in BHK cells expressing hGIPR [1]: 100%; maximal % inhibition of GIP-induced cAMP in BHK cells expressing mGIPR [2]: 99%
mouse GIP (from UniProt P48756 44-85) (ligand),,,,,EC50 of cAMP production (CRE-luciferase) in BHK cells expressing hGIPR [1]: 0.01 nM
B1,100%,100%,2.49 nM,8.7 nM,
B2,81%,73%,1.55 nM,,
B3,100%,100%,,,
B4,100%,100%,0.21 nM,1 nM,
B5,81%,93%,1.8 nM,18.7 nM,
B6,100%,100%,3.83 nM,24.8 nM,
B7,100%,97%,0.36 nM,2.1 nM,
B8,83%,91%,6.45 nM,37.1 nM,
B9,100%,100%,0.9 nM,5.4 nM,
B10,,,,,maximal % inhibition of GIP-induced cAMP in BHK cells expressing hGIPR [1]: 72%; maximal % inhibition of GIP-induced cAMP in BHK cells expressing mGIPR [2]: 86%
